# Data reported in patent US7998923B2, “Bioactivation of particles” (The Regents of the University of California, priority 2002, dated 2011).
# Square brackets hold non-standard residues; d marks the D form. Cha = N[C@@H](CC1CCCCC1)C(=O)O
# Assay: solubilization assay of CdSe/ZnS quantum dots with bioactivation peptides
# Type: physicochemical
# Settings: peptide coated CdSe/ZnS quantum dots, diluted from DMSO
# Protocol: A non-limiting example of the MRP is Cha-C-C-Cha-C-C-Cha-C-C-Cha (SEQ. ID. NO. 1) with Cha standing for Cyclohexyl alanine and C for cysteine. […] All synthesis used N-Boc or F-moc protecting groups and sequences may be N-acetylated and/or C-carboxylated. The bioactivation peptides are added directly onto the particles and allowed to form a good dispersion of the quantum dots in DMSO and subsequently yielded stable and highly monodisperse dilutions of the nanocrystals in water and buffer. Stability in water and buffers is enhanced by the addition of a hydrophilic sequence at the N-terminus of the Cha-C-C-Cha . . . sequence. The following sequence was used: G-S-E-S-G-G-S-E-S-G-Cha-C-C-Cha-C-C-Cha-C-C-Cha (SEQ. ID. NO. 2).
# This substitution led to aggregations of particles during the reaction and thus lack of migration on electrophoresis gels. Similarly replacing the cysteines in the binding clusters with alanine gave unstable particles that flocculate rapidly after solubilization in aqueous solvents. […]
substance,measurement,value
NH2-G-S-E-S-G-G-S-E-S-G-Cha-C-C-Cha-C-C-Cha-C-C-Cha-Carboxamide (H-GSESGGSESG[Cha]CC[Cha]CC[Cha]CC[Cha]-NH2; cysteine pairing not given here) [ChaCha E swimmer],stability in water and buffers,enhanced
